Values of other authors in US7266483B2, “System and methods for optimized drug delivery and progression of diseased and normal cells” (Optimata Ltd., priority 2000, dated 2007).

What was measured:
[1] = test system: post mitotic compartment; settings: counts made on day 5 after G-CSF administration; noted by Price
[2] = modeled as exponential distribution, held constant
[3] = average model parameter calculated from published data

TPO: Thrombopoiesis-controlling cytokine, glycoprotein of about 350 amino acids; term covers its recombinant forms and analogs
a, TPO-clearing ability of the receptors [3]: 38 pg/ml/hr/receptor molecule
f, coefficient of non-specific TPO clearance [3]: 0.1 h⁻¹
relation coefficient of initial maximum TPO blood concentration (xi) to administered intravenous (IV) dose (s) (linear relation, xi=0.0167·si): 0.0167

B1: G-CSF: Granulocyte-Colony Stimulating Factor; generates an increase in blood Neutrophil levels (protein, UniProt P09919 31-207, looked up)
Granulocyte …: TPLGPASSLPQSFLLKCLEQVRKIQGDGAALQEKLVSECATYKLCHPEELVLLGHSLGIPWAPLSSCPSQALQLAGCLSQLHSGLFLYQGLLQALEGISPELGPTLDTLQLDVADFATTIWQQMEELGMAPALQPTQGAMPAFASAFQRRAGGVLVASHLQSFLEVSYRVLRHLAQP
number of cells in the post mitotic compartment following administration of G-CSF [1]: not significantly changed
half-life of G-CSF in the blood [2]: 3.5 h
